What all share (type): physicochemical
A short description of series [1]: Gelation kinetics of pH adjusted peptides, time sweep with DMEM added. As to the method:
The effect of pH level on the properties of gelation kinetics was evaluated to identify optimized pH levels for the peptides as described herein. Fast gelation kinetics of PuraMatrix® and other peptides within body fluid may generally improve its function and response time for various clinical applications. The pH level may impart response time to begin gelation when treated with simulated body fluid including but not limited to DMEM. […] A fast response time of PuraMatrix® and other peptides within body fluid may generally improve its function and response time for various clinical applications.
Time sweep tests were performed at 1 rad/sec and at 1 Pa with 20 mm plates and 500 μm gap distance. During time sweep test of PuraMatrix® 2.5% solution, DMEM was added into the chamber surrounding the measuring plates to soak PuraMatrix® solution at 0 time point. The results are shown in FIG. 9A for PuraMatrix® 2.5% solution.
Time sweep tests were performed at 1 rad/sec and at 1 Pa with 20 mm plates and 500 μm gap distance. During time sweep test of IEIK13 1.5% solution, DMEM was added into the chamber surrounding the measuring plates to soak IEIK13 1.5% solution at 0 time point and continuously data was recorded. The results are shown in FIG. 9B for IEIK13 1.5% solution.

A short description of series [2]: Rheological comparison of peptide hydrogels mixed with Ringer's Solution or indigo carmine. From the text:
The two gels were: (1) a combination of the self-assembling peptide with a well-known cation/anion solution, Ringer's Solution (pH 5.3), used in the medical field and (2) a combination of the self-assembling peptide with a well-known contrast agent, indigo carmine, which is a dye solution containing sulfate (anion) and sodium (cation) ions. Indigo carmine contains indigoindisulfonate sodium (C16H8N2Na2O8S2), water, and sodium citrate […] for pH adjustment. Using indigo carmine powder, a 1% solution was prepared for use in experimentation. This corresponds to 10 mg/1 ml of water. The concentration of indigo carmine solution used in experimentation was 0.00585% in water.
Indigo carmine powder was used to prepare a 1% solution in deionized (DI) water. Using IEIK13 powder, a 2 percent solution was prepared using DI water. The amount of IEIK was weighed out and the appropriate amount of DI water was added gently down the side of the container. Mixing was accomplished by vortexing for about 30 seconds, and then sonicating for 30 seconds. The solution was then centrifuged for about 10 to about 15 minutes at […]. The solution may undergo further vortexing and centrifuging until the solution is clear and without bubbles.
To obtain a final concentration of 0.00585% indigo carmine, the necessary amount of 1% IC is added to the appropriate amount of DI water to dilute 2% IEIK to 1.5% IEIK. […]

Series [3] is described as follows: Rheological measurements of RADA16 mixed with salts (stiffness, reversibility, gelation kinetics). The note with it: (RADA)4 about 2.5 w/v percent; calcium chloride about 0.125 M.
Series [4] in a line: Rheological properties of peptide solutions (1%) before and after DMEM treatment (rheometer). The note with it: DMEM 2 minutes, compared with weaker peptide solutions (i.e. PuraMatrix®). Here is the method:
The effects of Dulbecco's modified Eagle's medium (DMEM) (pH 7.4) on the rheological properties of IEIK13, KLD12, and PuraMatrix® were evaluated on a rheometer (AR500, TA Instruments) with 40 mm plates. DMEM is generally a cell culture medium that contains 6.4 g/L of NaCl, 3.4 g/L NaHCO3 (sodium bicarbonate), minor amounts of other salts, various amino acids, and 4.5 g/L of glucose. The pH level of DMEM is generally 7.2±0.2 and the osmolality is 335±30 mOsm/Kg H2O; both measurements are close to human physiological fluids such as blood.
Peptide solutions (1%) were kept at 4° C. for at least 48 hours before testing. To perform the experiment, 1 mL of peptide solution was gently pipetted and placed on the plate of the rheometer. 2 mL of DMEM solution was gently added around the peptide solution. The peptide solution was treated with DMEM for two minutes, then the media was removed, and the plates were placed at a measuring geometry gap at around 450 μm. Measurements were performed at 37° C. after 2 min of relaxation time. Frequency tests were performed from 1 rad/s to 100 rad/s at 1 Pa of oscillation stress.
The rheological properties of the peptides (1%) were compared before and after DMEM treatment for 2 minutes, as shown in FIG. 1A. […]

Where [5] appears, read: with pH adjustment, PuraMatrix 2.5%, IEIK13 1.5% solution.

For the substance “Arg-Ala-Asp-Ala-Arg-Ala-Asp-Ala-Arg-Ala-Asp-Ala-Arg-Ala-Asp-Ala [PuraMatrix ®]”, in series [1] (setting [5]), the “storage modulus response after DMEM addition” value is recorded as “immediate storage modulus increase”. Moreover, in series [1] (without pH adjustment (pH 2.2), 2.5% solution), the “initial time without storage modulus increase after DMEM addition” value was determined as 13 s. Besides, the “properties of tailored hydrogel” value in series [2] (mixed with Ringer's Solution (pH 5.3)) is “stiffer gel with faster gelation kinetics that maintains reversibility”. For the same substance, the storage modulus result in series [3] is reported as “about 600 Pa”.

Consider “Ile-Glu-Ile-Lys-Ile-Glu-Ile-Lys-Ile-Glu-Ile-Lys-Ile [IEIK13]”, for which the “fold increase of storage modulus after DMEM treatment” value in series [4] is “lower-fold increase”. For the same substance, the “storage modulus response after DMEM addition” value in series [1] (setting [5]) is reported as “immediate storage modulus increase”; in series [1] (without pH adjustment, 1.5% solution) it was “immediate storage modulus increase”. In series [2] (1.5% IEIK mixed with 0.00585% indigo carmine), the “properties of tailored hydrogel” value was “maintains stiffness, reversibility, and gelation kinetics”.

These data come from patent US20170173105A1, “AUTOASSEMBLING PEPTIDES FOR THE TREATMENT OF PULMONARY LEAKAGE” (3-D MATRIX, LTD., priority 2014, published 2017).
